{"source": "patent US20250339531A1", "about": "“DUX4 POLYPEPTIDES AND NUCLEIC ACIDS FOR TREATING INFLAMMATORY AND AUTOIMMUNE CONDITIONS” (Fred Hutchinson Cancer Center, priority 2021, published 2025)", "molecules": {"B1": {"name": "DUXB: related factor in the DUX family, doxycycline-inducible 3×FLAG-NLS-DUXB control, SEQ ID NO:106 (protein)", "chain": "DYKDHDGDYKDHDIDYKDDDDKPPKRMRREPKKKRKVNLEGTSGGILQKEFWRNRIQYNQSQKDILQSWFQHDPFPDKAAREQLAKEIGVPESNIQVWFKNYRVKQRKLDYKCFSEKDQTQGHDQSQHLTQEYLPKEARQKQTFITWTQKNRLVQAFERNPFPDIATRKKLAEQTGLQESRIQMWFQKQRSLYLKKSRMEPMNLLVDDPNERPDATVGWHPINLFLPTDSSHYFSCSHSSSGHETLPPVLPSTQAPWDPFRFHVSQGPNVMIMQPTQAVQEGEKSDQPLIIPNHLLTLPILTKDLDTPTPFWLQYQEEHQNHKEHSGSGVPQVKSHSQPEPEHREQQPLNLGQFDISNILQRWDEICQALLAEWEPLKGTH", "modifications": "3xFLAG-NLS tag"}}, "key": {"pSTAT1-Y701, pSTAT1-S727": {"molecular_target": "T1, pSTAT1-Y701, pSTAT1-S727 (Homo sapiens, UniProt P42224)", "T1 construct": "co-localization of endogenous STAT1 and pSTAT1 701 with the iDUX4-CTD; endogenous in cells; host or cells: MB135 human myoblasts carrying doxycycline-inducible DUX4 / DUX4-CTD / DUXB / Dux transgenes, with or without IFNG", "T1 sequence (P42224 1-750)": "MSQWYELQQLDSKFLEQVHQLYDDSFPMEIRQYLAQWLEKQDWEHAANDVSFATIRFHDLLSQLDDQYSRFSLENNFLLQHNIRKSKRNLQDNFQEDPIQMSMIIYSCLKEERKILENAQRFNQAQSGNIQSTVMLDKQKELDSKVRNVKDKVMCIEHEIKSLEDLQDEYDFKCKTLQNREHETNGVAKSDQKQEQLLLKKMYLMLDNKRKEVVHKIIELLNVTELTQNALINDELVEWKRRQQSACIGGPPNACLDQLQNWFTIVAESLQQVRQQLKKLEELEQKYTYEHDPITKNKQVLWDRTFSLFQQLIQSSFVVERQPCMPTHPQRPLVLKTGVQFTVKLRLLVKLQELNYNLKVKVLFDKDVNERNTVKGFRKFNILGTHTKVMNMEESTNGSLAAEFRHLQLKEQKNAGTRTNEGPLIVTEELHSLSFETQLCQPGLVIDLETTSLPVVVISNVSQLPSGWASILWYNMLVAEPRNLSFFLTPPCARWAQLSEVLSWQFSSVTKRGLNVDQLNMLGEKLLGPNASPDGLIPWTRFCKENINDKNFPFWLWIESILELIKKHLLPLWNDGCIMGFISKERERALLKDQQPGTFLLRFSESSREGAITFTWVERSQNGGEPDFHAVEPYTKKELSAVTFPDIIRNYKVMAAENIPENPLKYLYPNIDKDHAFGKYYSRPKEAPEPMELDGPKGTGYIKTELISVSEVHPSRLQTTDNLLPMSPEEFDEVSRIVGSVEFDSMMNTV", "assay": "Western analysis of whole-cell extracts for STAT1 and pSTAT1", "type": "cell-based", "details": "doxycycline and IFNG", "description": "Protein samples were harvested in RIPA buffer [150 mM NaCl, 1% NP-40, 0.5% Na-deocycholate, 1% SDS, 25 mM Tris-HCl pH7.4] supplemented with protease and phosphatase inhibitor tablets (Pierce), followed by sonication in Diagenode Bioruptor. Lysate was cleared by centrifugation at 16000×g and quantified using a Pierce BCA assay (Thermo Fisher Scientific). Samples were run on NuPAGE precast polyacrylamide gels (Invitrogen) and transferred to PVDF membrane. Membranes were blocked in PBS containing 0.1% Tween-20 and 5% non-fat dry milk before overnight incubation at 4° C. with primary antibodies (see resource table for a list of antibodies used in this study). Membranes were incubated with horseradish peroxidase-conjugated secondary antibodies for 1 hour at room temperature and SuperSignal chemiluminescent substrate (Thermo Scientific) was used for detection on film with a Mini-medical 90 processor. Membranes were stripped with Restore Western Blot Stripping Buffer (Pierce)."}, "[1]": {"system": "interferon-stimulated genes IFIH1, ISG20, CXCL9, and CD74", "assay": "IFNG induction of interferon-stimulated genes, RT-qPCR in MB135 cells with doxycycline-inducible transgenes", "type": "cell-based, human", "details": "MB135 cells, doxycycline-induced transgene, continuous protocol, IFNG 16 h", "description": "All myoblast experiments were conducted in immortalized MB135 or MB200 myoblast cell lines (isolated from a control or FSHD2 subject, respectively cultured in Ham's F-10 Nutrient Mix (Gibco) supplemented with 15% fetal bovine serum (Hyclone), 100 U/100 μg/ml penicillin/streptomycin (Gibco), 1 μM dexamethasone (Sigma), and 10 ng/ml recombinant human basic fibroblast growth factor (PeproTech). To differentiate the myoblasts to myotubes, media was changed to DMEM supplemented with 10 μg/ml insulin (Sigma) and 10 μg/ml transferrin (Sigma). Cell lines containing doxycycline-inducible transgenes were additionally cultured with 2 μg/mL puromycin (Sigma). Transgenes were induced with 1 μg/mL of doxycycline (Sigma) for 4 hours prior to other treatments for a total of 20 hrs. The Kitra-SRS cells (RRID:CVCL_YI69) were provided by Dr. H. Otani and Osaka University (Nakai et al., 2019) and were cultured in DMEM supplemented with 10% fetal bovine serum (Hyclone) and 100 U/100 μg/ml penicillin/streptomycin (Gibco). Biological replicates consisted of independent but parallel experiments, such as simultaneously stimulating three cell culture plates with IFNγ. Technical replicates consisted of repeat measurements of the same biological sample, such as loading the same biological sample in triplicate for analysis by RT-qPCR.\nMyoblasts were transfected with either (final concentrations) 10 μM 2′,3′-cGAMP (Sigma Aldrich), 2 μg/mL poly(I:C) (Invitrogen), or 1 μg/mL 3′ppp-dsRNA RIG-I ligand (Dan Stetson Lab, UW) using Lipofectamine 2000 according to manufacturer's protocol, or were stimulated with 1000U IFNβ (PeproTech) or 200 ng/ml IFNγ (R+D Systems) by addition directly to cell culture medium. After 16 hours of immune stimulation, RNA was collected from cells using the NucleoSpin RNA Kit (Macherey-Nagel) according to manufacturer's instructions. RNA samples were quantified by nanodrop and 1 μg of RNA per sample was treated with DNase I Amplification Grade (Thermo Fisher), and then synthesized into cDNA using the Superscript IV First-Strand Synthesis System, including oligo dT primers (Invitrogen). qPCR was run in 384-well plates on an Applied Biosystems QuantStudio 6 Flex Real-Time PCR System (ABI) and analyzed in Microsoft Excel."}}}
{"molecule": "B1", "values": [{"measurement": "abundance of pSTAT1 and total STAT1", "setting": "pSTAT1-Y701, pSTAT1-S727", "value": "did not increase either form of phosphorylated STAT1"}, {"measurement": "suppression of IFNG induction of ISGs (IFIH1, ISG20, CXCL9, CD74)", "setting": "[1]", "value": "did not suppress ISG induction by IFNG"}]}
